Source: PMC2275666 (The EMBO Journal, 2008)

Columns and labels:
6H–hTFIIEα V390K = biological target: T1, 6H–hTFIIEα V390K (human, UniProt P29083 1-439, V390K); experiment: pull-down
T1 sequence: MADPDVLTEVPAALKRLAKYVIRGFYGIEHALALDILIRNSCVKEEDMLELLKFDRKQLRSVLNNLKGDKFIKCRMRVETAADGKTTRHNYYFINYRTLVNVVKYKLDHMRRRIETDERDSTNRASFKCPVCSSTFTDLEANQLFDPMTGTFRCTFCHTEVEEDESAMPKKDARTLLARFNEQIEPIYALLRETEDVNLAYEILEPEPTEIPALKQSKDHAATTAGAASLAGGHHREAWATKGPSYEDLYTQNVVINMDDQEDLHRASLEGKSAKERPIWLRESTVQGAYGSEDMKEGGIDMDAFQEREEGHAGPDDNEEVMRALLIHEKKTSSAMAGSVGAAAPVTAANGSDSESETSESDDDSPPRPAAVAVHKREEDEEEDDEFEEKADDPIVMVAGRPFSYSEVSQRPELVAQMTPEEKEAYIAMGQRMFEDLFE

6H–hTFIIEα D393A = biological target: T2, 6H–hTFIIEα D393A (human, UniProt P29083 1-439, D393A); experiment: pull-down
T2 sequence: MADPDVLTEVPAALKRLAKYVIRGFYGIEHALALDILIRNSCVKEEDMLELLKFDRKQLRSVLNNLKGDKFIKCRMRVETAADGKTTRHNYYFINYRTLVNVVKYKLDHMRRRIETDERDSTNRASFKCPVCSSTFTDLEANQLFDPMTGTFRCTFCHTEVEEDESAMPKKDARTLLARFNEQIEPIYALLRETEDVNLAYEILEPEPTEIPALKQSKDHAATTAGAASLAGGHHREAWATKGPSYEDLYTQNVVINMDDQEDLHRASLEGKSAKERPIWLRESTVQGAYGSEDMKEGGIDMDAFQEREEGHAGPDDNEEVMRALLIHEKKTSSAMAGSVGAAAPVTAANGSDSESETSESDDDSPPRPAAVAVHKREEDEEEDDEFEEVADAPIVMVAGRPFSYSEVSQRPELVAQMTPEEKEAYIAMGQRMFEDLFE

B1: GST-tagged hTFIIEβ (natural protein)
chain: MDPSLLRERELFKKRALSTPVVEKRSASSESSSSSSKKKKTKVEHGGSSGSKQNSDHSNGSFNLKALSGSSGYKFGVLAKIVNYMKTRHQRGDTHPLTLDEILDETQHLDIGLKQKQWLMTEALVNNPKIEVIDGKYAFKPKYNVRDKKALLRLLDQHDQRGLGGILLEDIEEALPNSQKAVKALGDQILFVNRPDKKKILFFNDKSCQFSVDEEFQKLWRSVTVDSMDEEKIEEYLKRQGISSMQESGPKKVAPIQRRKKPASQKKRRFKTHNEHLAGVLKDYSDITSSK
6H–hTFIIEα V390K
  binding result: binds
6H–hTFIIEα D393A
  binding result: binds
